# Measurements: patent US20260159603A1 (BEAM THERAPEUTICS, published 2026)
# T1: huCD5-BTN (human, UniProt P06127 25-372, limits assumed, biotinylated (BTN))
# T1 construct: Loaded onto streptavidin biosensors; also called human CD5
# T1 sequence (looked up): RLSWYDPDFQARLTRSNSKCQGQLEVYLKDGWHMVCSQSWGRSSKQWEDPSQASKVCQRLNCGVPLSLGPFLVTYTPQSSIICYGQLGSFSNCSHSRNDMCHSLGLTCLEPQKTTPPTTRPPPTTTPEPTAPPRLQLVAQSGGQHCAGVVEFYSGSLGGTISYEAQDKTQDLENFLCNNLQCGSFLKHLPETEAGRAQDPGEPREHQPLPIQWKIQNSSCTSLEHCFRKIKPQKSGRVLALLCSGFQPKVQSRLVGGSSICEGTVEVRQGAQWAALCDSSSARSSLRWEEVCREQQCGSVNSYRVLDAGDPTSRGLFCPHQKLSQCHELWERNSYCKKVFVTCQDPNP
# T2: biotinylated human CD5-HIS (human, UniProt P06127 25-372, biotinylated)
# T2 construct: Loaded onto streptavidin Octet pins; also called huCD5; SA-human CD5; not shown: HIS tag
# T2 sequence (looked up): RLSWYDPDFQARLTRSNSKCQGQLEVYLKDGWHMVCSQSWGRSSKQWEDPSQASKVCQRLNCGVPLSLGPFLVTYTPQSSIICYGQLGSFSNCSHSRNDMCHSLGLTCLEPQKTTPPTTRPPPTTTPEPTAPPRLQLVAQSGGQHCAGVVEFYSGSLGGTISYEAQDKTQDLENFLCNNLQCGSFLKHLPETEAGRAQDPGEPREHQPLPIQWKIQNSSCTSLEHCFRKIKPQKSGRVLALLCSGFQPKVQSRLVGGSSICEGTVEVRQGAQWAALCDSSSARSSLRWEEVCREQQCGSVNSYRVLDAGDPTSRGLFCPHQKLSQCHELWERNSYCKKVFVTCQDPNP
# T3: human CD5 on transfected HEK293T cells (human, UniProt P06127 25-495)
# T3 construct: whole, on cells; also called huCD5; Human CD5 Cells
# T3 sequence (looked up): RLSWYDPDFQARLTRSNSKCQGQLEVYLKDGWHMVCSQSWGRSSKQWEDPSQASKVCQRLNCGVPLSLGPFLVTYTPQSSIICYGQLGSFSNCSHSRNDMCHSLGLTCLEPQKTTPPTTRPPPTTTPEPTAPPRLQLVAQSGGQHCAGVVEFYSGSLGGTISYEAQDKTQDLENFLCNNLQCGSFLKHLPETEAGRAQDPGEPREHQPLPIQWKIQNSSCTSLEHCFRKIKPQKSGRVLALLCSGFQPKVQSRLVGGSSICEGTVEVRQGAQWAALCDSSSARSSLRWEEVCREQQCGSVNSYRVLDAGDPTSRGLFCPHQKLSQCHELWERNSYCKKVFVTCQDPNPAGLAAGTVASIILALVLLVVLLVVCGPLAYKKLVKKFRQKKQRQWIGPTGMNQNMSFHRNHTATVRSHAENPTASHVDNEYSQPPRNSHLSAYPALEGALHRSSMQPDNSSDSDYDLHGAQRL
# Tests used:
# huCD5-BTN = molecular target: T1, huCD5-BTN; test: BLI in tandem, huCD5-BTN saturated with UCHT2 first; competitor UCHT2
# [1] = molecular target: T2, biotinylated human CD5-HIS; test: BLI; KD on human CD5 divided by KD on cynomolgus CD5
# [2] = molecular target: T2, biotinylated human CD5-HIS; test: BLI (Octet), biotinylated CD5-HIS on streptavidin pins
# [3] = molecular target: T4, biotinylated cynomolgus CD5-HIS (cynomolgus); test: as above
# T4 construct: Loaded onto streptavidin Octet pins; also called CynoCD5; SA-Cyno CD5
# [4] = molecular target: T3, human CD5 on transfected HEK293T cells; test: flow cytometry, periplasmic extract on transfected HEK293T cells
# [5] = molecular target: T5, cynomolgus CD5 on transfected HEK293T cells (cynomolgus (Table 8B); rhesus macaque …); test: as above
# T5 construct: whole, on cells; also called Cynomolgus CD5 Cells; rhesus macaque (Macaca mulatta) CD5
# [6] = molecular target: T2, biotinylated human CD5-HIS; test: BLI (Octet), biotinylated CD5-HIS on streptavidin pins, periplasmic extract, off-rate
# [7] = molecular target: T4, biotinylated cynomolgus CD5-HIS; test: as above
binder,measurement,setting,value
"ABTx328 VHH-Fc (Fc fusion, VHH as Fc fusion protein; order of the parts and the Fc are not described; also called anti-CD5 VHH-Fc; not shown: Fc (detected with anti-Human Fc)) QVQLVESGGGLVQPGESLRLSCVVSGDIFSFIGWGWYRQAPGKQRELVAQINTGGLTDYADSVKGRFTISRDNAKRTVYLQMNSLKFEDTAVYYCNFPGHSWGQGTQVTVSS",response,huCD5-BTN,0.153 Response Units
"ABTx318 VHH-Fc (Fc fusion, VHH as Fc fusion protein; order of the parts and the Fc are not described; also called anti-CD5 VHH-Fc; not shown: Fc (detected with anti-Human Fc)) QVQLQESGGGSVQAGGSLRLSCAASGRAFSAYAMGWFRQAPGKEREFVAAINWNGDTALRWNGFATRYADSVKGRFTISRVIAKNTVNLQMNSLKPEDTAVYYCAADTVVSGSYYLAARAEDYEYWGQGTQVTVSS",response,huCD5-BTN,1.15 Response Units
"ABTx322 VHH-Fc (Fc fusion, VHH as Fc fusion protein; order of the parts and the Fc are not described; also called anti-CD5 VHH-Fc; not shown: Fc (detected with anti-Human Fc)) QLQLVESGGGLVQPGGSLRLSCAASGSDFLVDATTWFRQAPGNQREFVAIMDIGGVTEYADSVKGRFTISRDHTKNTVYLQMNSLKVEDTAVYYCNTRGLWGQGTLVTVSS",response,huCD5-BTN,-0.137 Response Units
"ABTx326 VHH-Fc (Fc fusion, VHH as Fc fusion protein; order of the parts and the Fc are not described; also called anti-CD5 VHH-Fc; not shown: Fc (detected with anti-Human Fc)) QVQLVESGGGLVQPGGSLRLSCAASGRTFINYAAGWFRQAPGKEREFVARISRSGGRTDYADSVKGRFTISRDNAKSTVYLQMNSLRPEDTAVYYCAEATVWEFTDGADQYDYWGQGTQVTVSS",response,huCD5-BTN,0.0571 Response Units
"ABTx329 VHH-Fc (Fc fusion, VHH as Fc fusion protein; order of the parts and the Fc are not described; also called anti-CD5 VHH-Fc; not shown: Fc (detected with anti-Human Fc)) QLQLVESGGGLVQPGESLRLSCAASGFSFSRVGMNWYRQAPGKERELVASISSDGSRTNYAHFVKGRFTISRDNVKNMVYLQMNSLKLEDTAVYYCNVPGNSWGQGTQVTVSS",response,huCD5-BTN,0.24 Response Units
"ABTx327 VHH-Fc (Fc fusion, VHH as Fc fusion protein; order of the parts and the Fc are not described; also called anti-CD5 VHH-Fc; not shown: Fc (detected with anti-Human Fc)) QVQLVESGGGLVQPGGSLRLSCVASGGTFSTYGMGWFRQAPGKEREFVAVITGSGVGTQYADSVKDRFTISRENAKNTVYLQMNTLKLEDTAVYYCVSGHRPGWAVIRADAYEYWGQGTQVTVSS",response,huCD5-BTN,0.025 Response Units
"ABTx330 (VHH, VHH in periplasmic extract of the phage display clone; also called clone 563; not shown: c-myc tag of the phagemid construct (detected with anti-c-myc 9E10)) VHH: EVQLVESGGGLVQPGGSLRLSCAASGFPFSSSFMSWVRQAPGKGLEWVSTIYSDGSTYYADSVKGRFTISRDNAKKTAYLQMNSLKAEDTAVYYCATVTGSIRGQGTQVTVSS",Hu/Cyno KD,[1],0.5
same,Kd,[2],0.65 nM
same,koff,[2],8.3e-05 s⁻¹
same,kon,[2],130000 M⁻¹ s⁻¹
same,Kd,[3],1.4 nM
same,koff,[3],0.00014 s⁻¹
same,kon,[3],110000 M⁻¹ s⁻¹
same,percent of cells showing binding,[4],78.6%
same,percent of cells showing binding,[5],72%
same,koff,[6],0.00231 s⁻¹
same,koff,[7],0.0102 s⁻¹
"ABTx330 VHH-Fc (Fc fusion, VHH as Fc fusion protein; order of the parts and the Fc are not described; also called anti-CD5 VHH-Fc; not shown: Fc (detected with anti-Human Fc)) EVQLVESGGGLVQPGGSLRLSCAASGFPFSSSFMSWVRQAPGKGLEWVSTIYSDGSTYYADSVKGRFTISRDNAKKTAYLQMNSLKAEDTAVYYCATVTGSIRGQGTQVTVSS",response,huCD5-BTN,0.367 Response Units
"ABTx325 VHH-Fc (Fc fusion, VHH as Fc fusion protein; order of the parts and the Fc are not described; also called anti-CD5 VHH-Fc; not shown: Fc (detected with anti-Human Fc)) QVQLVESGGGLVQPGGSLRLSCAASGSDASTNNMAWYRQAPGKEREFVALIRTGGSTHVADSMKGRFTISRENAKNTVYLQMNSLKPEDTAVYYCVIWTGSPGALSDYWGQGTQVTVSS",response,huCD5-BTN,0.396 Response Units
"ABTx324 VHH-Fc (Fc fusion, VHH as Fc fusion protein; order of the parts and the Fc are not described; also called anti-CD5 VHH-Fc; not shown: Fc (detected with anti-Human Fc)) QVQLVESGGGLVQPGGSVRLSCATSGSIFSTNVMGWYRQAPGKEREFVALIRGGGSTHYADSVKGRFIISRENAKTTVYLQMNGLKPEDTAVYYCVIWLGSPGAMSDYWGQGTQVTVSS",response,huCD5-BTN,0.663 Response Units
"ABTx323 VHH-Fc (Fc fusion, VHH as Fc fusion protein; order of the parts and the Fc are not described; also called anti-CD5 VHH-Fc; not shown: Fc (detected with anti-Human Fc)) QVQLQESGGGLVQAGGSLRLSCATSGITSSINVIGWYRQAPGKQRELVALVNSGGQTHYADSVKGRFTISRDNAKNTVFLQMNSLKPEDTAEYYCHGRYGIDNYWGEGTQVTVSS",response,huCD5-BTN,0.317 Response Units
